Source: patent US20230212511A1

Experiments:
[1] = molecular target: full length human TpoR (wild type), expressed on transduced cells (human) (UniProt P40238); experiment: cell-based or functional assay
[2] = molecular target: mutant truncated (mt) TpoR, lacking the final five amino acids (human) (UniProt P40238); experiment: cell-based or functional assay

recombinant human Tpo (Miltenyi Biotec) (from UniProt P40225 22-195) (ligand)
enrichment of TpoR positive primary human T-cells (from 20% transduced) in the presence of Tpo (% TpoR positive) [1]: 87.5 | enrichment of TpoR positive primary human T-cells (from 20% transduced) in the presence of Tpo (% TpoR positive) [2]: 77.9
